Measurements reported in article PMC3995836.

Columns and labels:
[1] = target: WW2 domain of human YAP2 (residues 230-264) (human) (UniProt P46937); test: ITC
[2] = target: WW1 domain of human YAP2 (residues 171-205) (human) (UniProt P46937); test: ITC
WW1 domain of human YAP2 (residues 171-205) (human), sequence (P46937 171-205): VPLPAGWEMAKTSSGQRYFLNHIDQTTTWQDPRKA

WW2 domain of human YAP2 (residues 230-264) (human), sequence (P46937 230-264): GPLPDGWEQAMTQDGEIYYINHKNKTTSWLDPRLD

Row | Substance | dH [1] [kcal/mol] | Kd [2] [µM] | dH [2] [kcal/mol] | Kd [1] [µM]
1 | ErbB4_PY1 peptide (12-mer with the PY1 PPXY motif of the ICD of human ErbB4) | -3.9 | 113 | -6.14 | –
2 | ErbB4_PY2 peptide (12-mer with the PY2 PPXY motif of the ICD of human ErbB4) | -4.23 | 84 | -2.94 | 116
3 | ErbB4_PY3 peptide, alanine mutant PY3_A+2 | -10.1 | – | -12.7 | 126
4 | ErbB4_PY3 peptide, alanine mutant PY3_A+4 | -8.61 | 53 | -9.8 | –
5 | ErbB4_PY3 peptide, alanine mutant PY3_A+5 | -14.6 | 15 | -14.6 | 46
6 | ErbB4_PY3 peptide, alanine mutant PY3_A+6 | -9.06 | 36 | -10.3 | 85
7 | ErbB4_PY3 peptide, alanine mutant PY3_A-1 | -10.7 | 70 | -15.9 | 110
8 | ErbB4_PY3 peptide, alanine mutant PY3_A-2 | -13.1 | 45 | -16.1 | 83
9 | ErbB4_PY3 peptide, alanine mutant PY3_A-3 | -10.3 | 46 | -16.9 | 62
10 | ErbB4_PY3 peptide, wildtype (12-mer with the PY3 PPXY motif of the ICD of human ErbB4) | -7.72 | 31 | -13.3 | 56
